Patent US10995119B2, “Peptide exhibiting hydrolytic activity and use thereof” (Okinawa Institute of Science and Technology School …, priority 2016, dated 2021)

What was measured:
Aβ1-20 = Aβ1-20 (Homo sapiens, UniProt P05067); assay: Hydrolysis activity against Aβ1-20
Experimental: (§4) Further, any change in activity caused by addition of human serum albumin (HSA, Wako Pure Chemical Industries, Ltd., final concentration 0.025%) also was measured.
(§5) As substrates, Aβ42 in the form of soluble powder (authentic sample, Peptide Institute Inc.) and fragment peptides thereof, namely, Aβ1-20, Aβ11-29, and soluble Aβ28-42, were used. […] In the case of MS analysis, the MS analysis was performed after applying 20 μl of the reaction solution to HPLC and collecting an aliquot of the peak.
(§6) The present experiment examined activity against Aβ-Fs in Example 7.
(§7) As substrates, the same Aβ1-20 and Aβ11-29 as used in Example 7 were used.

Aβ1-20 and Aβ11-29 = assay: Reaction rates / Km for Aβ1-20 and Aβ11-29; format: biochemical; settings: Aβ-F 0.05, 0.2 or 0.4 mmol/l, 0 or 1 hour
Experimental: HPLC was performed with the Aβ-F concentration in a reaction solution being set to 0.05, 0.2, or 0.4 mmol/l and a reaction time being set to 0 hours or 1 hour. Then, on the basis of the reduction rate of the peak of each Aβ-F, the Km value was determined.

Aβ42 = Aβ42 (Homo sapiens, UniProt P05067); assay: Intermolecular interaction with Aβ42 (AFFINX QNμ); format: binding; settings: JAL-TA9 immobilized on platinum electrode
Source text: (§1) Intermolecular interactions of JAL-TA9 with Aβ42 and with Aβ-F were examined using an AFFINX QNμ (trade name, INITIUM, Inc.) in accordance with its protocol. The results obtained are shown in the graphs of FIG. 40. In FIG. 40, X indicates the result obtained when JAL-TA9 was not immobilized on a platinum electrode, and Y indicates the result obtained when JAL-TA9 was immobilized on the platinum electrode.

[1] = Autodigestion of the catalytic peptide (HPLC, MS); format: biochemical
Experimental: First, to a buffer solution (Tris-HCl, pH 6.5, final concentration: 100 mmol/l), JAL (final concentration: 0.2 mmol/l) and the fragment peptide of hMMP7 (final concentration 0.05 mmol/l) were added. […] Thereafter, the reaction solution was subjected to HPLC, and the peaks of JAL and the fragment peptide of hMMP7 were examined. HPLC was performed under the following conditions.
Next, the mechanism of autodigestion was examined using various mutants of JAL as hydrolytic peptides. To a reaction solution containing each of the mutants of JAL, a protease inhibitor (trade name: Roche cOmplete, Roche) was added to cause a reaction. One tablet of the protease inhibitor was dissolved in 1 ml of Milli-Q water, and then, 50 μl of the resultant mixture was added to the reaction solution. […] As a result, the autodigestion of all the peptides subjected to the measurement was inhibited (FIG. 16).
Autodigestion in Box B was examined.
JAL-TA9 was reacted in the same manner except that a substrate was not added to examine the autodigestion of JAL-TA9.
The influence of an inhibitor on autodigestion of JAL-TA9 was examined. […] As the protease inhibitor, the serine protease inhibitor AEBSF, which inhibited the autodigestion of JAL 12-22 C19M in the item (6) in Example 4, was used.

Aβ11-29 [2] = target: T1, Aβ11-29 (Homo sapiens, UniProt P05067); assay: Intermolecular interaction with Aβ11-29 (AFFINX QNμ); format: binding; settings: JAL-TA9 immobilized on platinum electrode
Source text: as §1

solid (insoluble) Aβ1-42 = solid (insoluble) Aβ1-42 (Homo sapiens, UniProt P05067); assay: Hydrolysis activity against solid (insoluble) Aβ1-42
Experimental: As a solid substrate, a crystal of Aβ42 was used. […] In the case of MS analysis, the MS analysis was performed after applying 100 μl of the reaction solution to HPLC and collecting an aliquot of the peak.

αA-crystallin = target: T2, αA-crystallin (Homo sapiens, UniProt P02489); assay: Degradation of αA-crystallin 71-88 fragment peptide; format: biochemical
T2 construct: consisting of 71-88 residues of αA-crystallin; made in house; host or cells: chemical synthesis (Setsunan University)
Source text: As a substrate, a fragment peptide with the following sequence consisting of 71-88 residues of αA-crystallin (synthesized in Setsunan University) was used.

Tau MBD 1-30 = Tau MBD 1-30 (Homo sapiens, UniProt P10636); assay: Hydrolysis activity against Tau MBD 1-30; format: biochemical
Source text: As a substrate, a Tau microtubule binding domain (MBD)-derived fragment (Tau MBD1-30) was used.

[3] = target: soluble Aβ1-42 (Aβ42 authentic sample) (Homo sapiens, UniProt P05067); assay: Hydrolysis activity against soluble Aβ1-42 (authentic sample)
Experimental: as §5
Aβ42 was used as a substrate. […] In the case of MS analysis, the MS analysis was performed after applying 20 μl of the reaction solution after the reaction for 7 days to HPLC and collecting an aliquot of the peak.

Aβ11-29 [4] = target: T1, Aβ11-29; assay: Hydrolysis activity against Aβ11-29
Experimental: as §4, §5
As a substrate, Aβ11-29, which is a fragment peptide of Aβ42, was used. […] In the case of MS analysis, the MS analysis was performed after applying 20 μl of the reaction solution after the reaction for 6 days to HPLC and collecting an aliquot of the peak.
as §6
The reaction solution V shown in FIG. 52 was incubated at 37° C. for a predetermined time, and autodigestion of ANA-YA4 (YRMI) and cleavage of Aβ11-29 were examined.
A reaction solution VI shown in FIG. 52 was incubated at 37° C. for a predetermined time, and cleavage of Aβ1-20 and Aβ11-29 by ANA-SA5 was examined.
as §7
The present example examined autodigestion and activity against Aβ-F of JAL 12-17 (YKGSGF) and JAL 12-16 (YKGSG). […] As a substrate, the same Aβ11-29 as used in Example 7 was used. The autodigestion was examined by causing the reaction in the same manner, except that the substrate was not added.

Aβ28-42 = Aβ28-42 (Homo sapiens, UniProt P05067); assay: Hydrolysis activity against Aβ28-42; format: biochemical
[5] = target: T3, bovine serum albumin (BSA) (Bos taurus, UniProt P02769); assay: Cleavage of BSA as substrate; format: biochemical; settings: BSA 0.025%
T3 construct: purchased Wako Pure Chemical Industries, Ltd
Experimental: (§2) On the other hand, by adding either HSA or BSA to the reaction solution, autodigestion of JAL 7-22 C 19M was […]. […] Since serum albumin is present in the body, it is considered that the hydrolytic peptide is suitable for use in the body. In experiments to be described below, the hydrolysis activity of JAL was measured in a reaction solution containing HSA.

SOD1 2-38 = SOD1 2-38 (Homo sapiens, UniProt P00441); assay: Hydrolysis activity against SOD1 2-38; format: biochemical; settings: Example 3 (1); substrate SOD1 2-38 or SOD1 2-12
Experimental: As a control, physiological saline (0.9 w/v %) was used instead of the buffer solution. […] Also, it is considered that physiological saline is suitable for storage of JAL before use, for example.
Next, an experiment was conducted to consider an optimal pH for activity using JAL as the hydrolytic peptide and SOD1 2-38 as a substrate.
Metal ions to be added to a reaction solution were Zn^2+, Ca^2+, Co^2+, or combinations thereof. The concentrations of the metal ions in the respective reaction solutions were as follows: 10 mmol/l for Ca^2+; and 5 μmol/l for the other metal ions.
(§3) In JAL 1-22 C19M and JAL 7-22 C19M, Cys residues contained in JAL form S—S bonds during a reaction, and this makes fragment analysis difficult. On this account, JAL 1-22 and JAL 7-22 were modified so as to substitute Cys residues by Met.

SOD1 2-12 = SOD1 2-12 (Homo sapiens, UniProt P00441); assay: Hydrolysis activity against SOD1 2-12; format: biochemical; settings: Example 3 (1); substrate SOD1 2-38 or SOD1 2-12
Source text: as §3

[6] = target: T4, human serum albumin (HSA) (Homo sapiens, UniProt P02768); assay: Cleavage of HSA as substrate; format: biochemical; settings: HSA 0.025%
T4 construct: purchased Wako Pure Chemical Industries, Ltd
Experimental: as §2

[7] = reaction solution composition 1 (PBS, HSA), 37° C., overnight

Tau MBD 1-30, sequence (P10636 609-638 limits assumed): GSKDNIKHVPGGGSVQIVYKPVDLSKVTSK
T3 sequence (P02769 25-607): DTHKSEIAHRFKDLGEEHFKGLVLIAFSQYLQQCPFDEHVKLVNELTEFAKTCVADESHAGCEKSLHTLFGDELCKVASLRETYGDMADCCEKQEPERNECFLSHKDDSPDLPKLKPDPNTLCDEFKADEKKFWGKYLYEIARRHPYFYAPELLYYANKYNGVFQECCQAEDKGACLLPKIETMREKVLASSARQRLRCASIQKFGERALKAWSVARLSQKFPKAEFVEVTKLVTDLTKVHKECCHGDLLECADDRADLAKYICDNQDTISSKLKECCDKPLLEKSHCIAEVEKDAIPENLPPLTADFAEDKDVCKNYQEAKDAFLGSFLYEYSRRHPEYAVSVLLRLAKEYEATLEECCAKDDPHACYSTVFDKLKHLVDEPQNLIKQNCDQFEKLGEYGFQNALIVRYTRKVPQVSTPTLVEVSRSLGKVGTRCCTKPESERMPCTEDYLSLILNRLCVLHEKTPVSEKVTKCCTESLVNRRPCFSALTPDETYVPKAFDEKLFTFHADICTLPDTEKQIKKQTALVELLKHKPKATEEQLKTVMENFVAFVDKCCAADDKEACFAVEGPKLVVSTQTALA
SOD1 2-38, sequence (P00441 2-38 limits assumed): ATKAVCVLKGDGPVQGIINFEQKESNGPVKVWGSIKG

Sequence: PYKGSGFRMI [JAL-TA9]
- cleavage sites in Aβ-Fs (MS) (Aβ1-20; Example 7): cleaved at a plurality of sites
- degradation of Aβ-Fs (HPLC) (Aβ1-20; [7]): degraded all the Aβ-Fs
- Km value, affinity of substrate to peptide (Aβ1-20 and Aβ11-29): Aβ11-29 has higher affinity to JAL-TA9 than Aβ1-20
- intermolecular interaction (Aβ42): strong interaction
- autodigestion in presence of protease inhibitor ([1]; AEBSF 6 mmol/l): autodigestion was inhibited
- autodigestion ([1]; Example 7, substrate not added): autodigestion of JAL-TA9 was observed
- autodigestion ([1]; Example 13, with αA-crystallin fragment): digested itself
- autodigestion in presence of protease inhibitor ([1]; reaction solution IV, 6 hours): inhibited by the protease inhibitor
- intermolecular interaction (Aβ11-29 [2]): strong interaction
- cleavage of solid Aβ42 (MS) (solid (insoluble) Aβ1-42; solid Aβ42): activity against the solid Aβ42 also was observed
- degradation of Aβ42 (HPLC) (solid (insoluble) Aβ1-42; solid Aβ42, reaction solution composition 2): degraded both types of Aβ42
- fragment identification by MS (αA-crystallin): fragments of αA-crystallin resulting from the cleavage by JAL-TA9 were detected
- degradation of αA-crystallin (αA-crystallin; JAL-TA9 0.2 mmol/l, PBS, HSA, reaction for 1 day): could degrade αA-crystallin
- fragment identification by MS (Tau MBD 1-30; reaction for 1 day): fragments of Tau MBD 1-30 resulting from the cleavage by JAL-TA9
- fragment identification by MS (Tau MBD 1-30; reaction for 5 days): fragments of Tau MBD 1-30 resulting from the cleavage by JAL-TA9
- degradation of Tau MBD 1-30 (HPLC) (Tau MBD 1-30; reaction solution composition 3, 37° C., overnight): degraded Tau MBD 1-30
- degradation of Aβ42 (HPLC) ([3]; authentic sample Aβ42, reaction solution composition 1): degraded both types of Aβ42
- cleavage sites in Aβ42 (MS) ([3]; soluble authentic sample, 7 days): cleaved at a plurality of sites
- region of Aβ42 cleaved ([3]; summary of cleavage sites, FIG. 39): strong cleavage activity was exhibited against an intermediate region of Aβ42
- cleavage sites in Aβ-Fs (MS) (Aβ11-29 [4]; Example 7): cleaved at a plurality of sites
- degradation of Aβ-Fs (HPLC) (Aβ11-29 [4]; [7]): degraded all the Aβ-Fs
- cleavage sites in Aβ-Fs (MS) (Aβ28-42; Example 7): cleaved at a plurality of sites
- degradation of Aβ-Fs (HPLC) (Aβ28-42; [7]): degraded all the Aβ-Fs

Sequence: YPEKPYKGSGFRMIHI [JAL 7-22 C19M]
- cleavage of albumin as substrate [5]: cleavage by JAL was not observed
- hydrolysis activity against Aβ1-20 (Aβ1-20; Example 3 (2), (6)): exhibited activity
- hydrolysis activity of JAL mutants (SOD1 2-38): exhibited hydrolysis activity
- hydrolysis activity of JAL mutants (SOD1 2-12): exhibited hydrolysis activity
- autodigestion in presence of protease inhibitor ([1]; HSA added, Roche cOmplete or AEBSF): fragments generated by autodigestion disappeared
- autodigestion, effect of albumin ([1]; HSA or BSA (0.025%) added): enhanced
- cleavage of albumin as substrate [6]: cleavage by JAL was not observed
